The text below walks through data of IntAct's records for PubMed 12799422.

B1: Adapter molecule crk (Homo sapiens), P46108 (parent)
chain: MAGNFDSEERSSWYWGRLSRQEAVALLQGQRHGVFLVRDSSTSPGDYVLSVSENSRVSHYIINSSGPRPPVPPSPAQPPPGVSPSRLRIGDQEFDSLPALLEFYKIHYLDTTTLIEPVSRSRQGSGVILRQEEAEYVRALFDFNGNDEEDLPFKKGDILRIRDKPEEQWWNAEDSEGKRGMIPVPYVEKYRPASASVSALIGGNQEGSHPQPLGGPEPGPYAQPSVNTPLPNLQNGPIYARVIQKRVPNAYDKTALALEVGELVKVTKINVSGQWEGECNGKRGHFPFTHVRLLDQQNPDEDFS
partner: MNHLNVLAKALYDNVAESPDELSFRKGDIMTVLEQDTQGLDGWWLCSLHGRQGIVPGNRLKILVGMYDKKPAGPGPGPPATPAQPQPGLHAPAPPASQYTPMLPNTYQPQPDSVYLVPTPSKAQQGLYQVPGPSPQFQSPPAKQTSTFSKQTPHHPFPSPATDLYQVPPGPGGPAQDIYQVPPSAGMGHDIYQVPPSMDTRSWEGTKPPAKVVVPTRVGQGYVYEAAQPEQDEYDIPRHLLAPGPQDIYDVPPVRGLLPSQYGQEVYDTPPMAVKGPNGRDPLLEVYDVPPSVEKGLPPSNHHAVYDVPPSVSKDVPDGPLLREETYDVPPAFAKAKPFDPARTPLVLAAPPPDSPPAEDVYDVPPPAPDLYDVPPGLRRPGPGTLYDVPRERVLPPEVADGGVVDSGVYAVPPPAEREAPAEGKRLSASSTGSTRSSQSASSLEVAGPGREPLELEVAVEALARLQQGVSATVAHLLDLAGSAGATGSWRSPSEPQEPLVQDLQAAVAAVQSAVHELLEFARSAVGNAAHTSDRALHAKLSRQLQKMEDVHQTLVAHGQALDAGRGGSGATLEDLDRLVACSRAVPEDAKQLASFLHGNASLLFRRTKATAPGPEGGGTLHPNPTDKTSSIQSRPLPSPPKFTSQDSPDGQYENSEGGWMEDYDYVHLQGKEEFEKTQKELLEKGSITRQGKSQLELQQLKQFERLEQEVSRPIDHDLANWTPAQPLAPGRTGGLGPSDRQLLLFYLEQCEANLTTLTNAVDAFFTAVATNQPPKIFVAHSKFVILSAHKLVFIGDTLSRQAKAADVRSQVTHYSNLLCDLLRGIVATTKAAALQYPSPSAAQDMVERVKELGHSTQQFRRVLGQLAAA
B2: Adapter molecule crk (Homo sapiens), P46108 (parent)
chain: B1 chain
B3: Tyrosine-protein phosphatase non-receptor type 1 (Gallus gallus (Chicken)), O13016 (parent)
chain: MEIEKEFHRLDQAASWAAIYQDIRHEASDFPCKVAKHPRNKNRNRYRDVSPFDHSRIKLNQGDNDYINASLIKMEEAQRSYILTQGPLPNTCGHFWEMVWEQKSRGVVMLNRVMEKGSIKCAQYWPRKEEKEMFFEDTNLKLTLISEDIKSYYTVRQLELENLTTQETREILHFHYTTWPDFGVPESPASFLNFLFKVRESGSLNPEYGPVVVHCSAGIGRSGTFCLVDTCLLLMDKRKDPSSVDVKQVLLEMRKYRMGLIQTADQLRFSYLAVIEGAKFIMGDASVQEQWKELSNEDLDPPPEHTPPPPRPPKRTSEMHNGRMHEHAEFFPKHQVVEEEIRCSVSTAEETVSDGRVFSSVPLITDSTSQDTEIRRRTVGENLHVTAHKEESKSESVEEDDENMMTTWKPFLVNICMFTFLTAGAYLCYRVCFH
B4: Adapter molecule crk (Homo sapiens), P46108 (parent)
chain: B1 chain
partner: B3 chain

In the first experiment the parent is B1. Conditions: with bcar1_human BCAR1, P56945.
Take Y221F: the “effect of a mutation on the interaction” value was “increasing interaction”.

Another experiment covers variants of B2. Conditions: with paxi_human PXN.
Turning to Y221F, the “effect of a mutation on the interaction” value is reported as “increasing interaction”.

In the next experiment the parent is B3. Conditions: with crk_human CRK, P46108.
Take MEIEKEFHRLDQAASWAAIYQDIRHEASDFPCKVAKHPRNKNRNRYRDVSPFDHSRIKLNQGDNDYINASLIKMEEAQRSYILTQGPLPNTCGHFWEMVWEQKSRGVVMLNRVMEKGSIKCAQYWPRKEEKEMFFEDTNLKLTLISEDIKSYYTVRQLELENLTTQETREILHFHYTTWPDFGVPESPASFLNFLFKVRESGSLNPEYGPVVVHSSAGIGRSGTFCLVDTCLLLMDKRKDPSSVDVKQVLLEMRKYRMGLIQTADQLRFSYLAVIEGAKFIMGDASVQEQWKELSNEDLDPPPEHTPPPPRPPKRTSEMHNGRMHEHAEFFPKHQVVEEEIRCSVSTAEETVSDGRVFSSVPLITDSTSQDTEIRRRTVGENLHVTAHKEESKSESVEEDDENMMTTWKPFLVNICMFTFLTAGAYLCYRVCFH [C215S]: the “effect of a mutation on the interaction” value was “disrupting interaction”.

The variants in another experiment derive from B4. Conditions: with ptn1_chick PTPN1, O13016.
On to Y221F, for which the “effect of a mutation on the interaction” value is reported as “decreasing interaction”.
